Among the data in paper PMC8956632 are response values, retold here.

The test has as its target 5-HT1AR-Rluc (UniProt P08908). Briefly: BRET. Particulars: HEK293 cells, basal (no agonist); parent: est. 0.27; read off a plot. A general note: Bioluminescence resonance energy transfer reports proximity on the nanometre scale.

Chain of 5-HT1AR-Rluc (P08908 whole entry): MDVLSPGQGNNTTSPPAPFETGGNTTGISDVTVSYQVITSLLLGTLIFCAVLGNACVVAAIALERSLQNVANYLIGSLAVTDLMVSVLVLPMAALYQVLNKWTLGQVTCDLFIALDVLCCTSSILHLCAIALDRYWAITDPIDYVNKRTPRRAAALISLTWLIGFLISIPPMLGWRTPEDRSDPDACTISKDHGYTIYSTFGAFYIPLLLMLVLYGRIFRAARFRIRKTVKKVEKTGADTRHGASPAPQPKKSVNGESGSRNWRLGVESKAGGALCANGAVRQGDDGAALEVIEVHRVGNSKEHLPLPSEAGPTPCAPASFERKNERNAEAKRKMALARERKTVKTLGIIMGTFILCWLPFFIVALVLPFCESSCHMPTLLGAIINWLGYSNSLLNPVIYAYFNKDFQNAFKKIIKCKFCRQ
Chain of OX1R-EGFP (O43613 whole entry, stated change not applied): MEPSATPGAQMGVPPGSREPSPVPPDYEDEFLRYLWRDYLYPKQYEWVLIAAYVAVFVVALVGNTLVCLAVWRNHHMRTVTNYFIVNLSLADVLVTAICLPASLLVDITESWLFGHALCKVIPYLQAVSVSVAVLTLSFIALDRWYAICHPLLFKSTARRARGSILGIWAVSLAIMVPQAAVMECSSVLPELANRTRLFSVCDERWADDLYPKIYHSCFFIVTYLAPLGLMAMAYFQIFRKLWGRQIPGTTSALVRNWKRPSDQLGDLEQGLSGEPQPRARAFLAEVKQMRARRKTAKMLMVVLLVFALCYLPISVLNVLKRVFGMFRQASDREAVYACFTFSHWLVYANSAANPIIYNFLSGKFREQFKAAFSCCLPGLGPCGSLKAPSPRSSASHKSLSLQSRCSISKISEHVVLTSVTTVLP

On to OX1R-EGFP (from UniProt O43613) L168A, for which the response stood at 0.27.
